Experimental data taken from publication PMC4689322.

Molecular target: T1, MBNL1 ZnF3/4 (Homo sapiens, UniProt Q9NR56-2 178-246)
T1 sequence: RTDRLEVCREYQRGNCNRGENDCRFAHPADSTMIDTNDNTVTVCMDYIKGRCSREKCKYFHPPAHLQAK
Assay: intrinsic tyrosine fluorescence quenching

UCGCUUUUCCCCUCCGCU (ssRNA) [hcTNT 18-nt (S10)]
Kd: 40 ± 10 nM
